Consider 2 molecules from PMC8760232, “Is reduced ferredoxin the physiological electron donor for MetVF-type methylenetetrahydrofolate reductases in acetogenesis? A hypothesis” (International Microbiology, 2021).

By stoichiometry N is commonly meant the number of molecules, sites or subunits per partner or assembly.

For data set [1], the target named is MetVF heterodimer of the methylene-tetrahydrofolate reductase (MTHFR) from Clostridium ljungdahlii (Clostridium ljungdahlii (endogenous in C. ljungdahlii)). Put plainly: SEC; analytical gel filtration of the purified MTHFR on Superdex 200 Increase, column calibrated with high- and low-molecular weight kits; dimer of MetVF heterodimers.
Substrate in the data set “purified protein”: Nc1nc2c(c(=O)[nH]1)N1CN(c3ccc(C(=O)N[C@@H](CCC(=O)O)C(=O)O)cc3)C[C@H]1CN2
Put plainly: purified protein. The data set is classed as biochemical, Clostridium ljungdahlii. Conditions: reduced ferredoxin as electron donor, 50 mM NaPi, 2 mM DTE, pH 7, 37 °C, methylene-THF made from formaldehyde and THF.

As for “MetVF heterodimer of the methylene-tetrahydrofolate reductase (MTHFR) from Clostridium ljungdahlii (complex)”, the stoichiometry N in data set [1] turned out to be 2.

B1: MetVF-type methylene-THF reductase (MTHFR) of C. ljungdahlii (Clostridium ljungdahlii DSM 13528) (protein)
chain: MSLLKEAFEKGEFAITAEMAPPKGTDLSHLIECAKKIKGRVQGVNVTDFQSATLKATSLATCKVLKDAGLEPVFQITGRDRNRIAIQGELLSAGVFEIENVLALTGDYTATGDHPGAKPVYDLDSVGILQVASILNGGKDMGGTDLKGKPDFFLGACVTPRYDPLELQVIKMKKKIKAGAKFFQTQAVYDMETLKKFKEETKAQGVDAKVMVGIIPLKSAGMAKYMNKNVPGIFVPDELIDRMKNAEDKVQEGIKIAGEFIKAVKESGLCDGVHIMAIGAEENVPLILDEAGL
notes: native enzyme purified from C. ljungdahlii cytoplasm, untagged; (MetVF)2 dimer of heterodimers, ~106 kDa native; MetF 33-35 kDa, MetV 23 kDa; FMN and 4Fe-4S clusters; with Methylene-tetrahydrofolate reductase C-terminal-like domain-containing protein
In the case of B1, the K0.5 in “purified protein” is on record as 70 µM.
